Experimental data taken from the DeepSol protein solubility set.

Assay: soluble on expression in E. coli; label from the status in PepcDB or PDB records

Sequence	soluble on expression in E. coli
MKSYHKELWMEVPSRMDFVNITRDVSRALDESGIREGLCLVNAMHITASVFINDDEPGLHADYKQWLEELAPHNPSHYQHNRTGEDNGDAHHKRQIMGREVVVAVTKGELHLGPWEQIFYGEFDGRRRKRVLIKIIGALEHHHHHH	soluble
MGSDKIHHHHHHMNNLFDRIASRYVDGAEVFYGWMNMSLNQIKRAKKLGIKTIVECASSHPLYQLKILEEEYQKWNIPFKVGSQKIYLKALKEIKEADFIKIPSDFVQETFIKNGIPEEKLIKIPFGVDLEKFQPKDNYNNEIFRAVFVGTVSIRKGIPYLLKAWSELNLKDAQLYVVGAISPDVKIIIAKYSKLKNIIFTGRVKDIVPILRESNVFVFPSIEEGSALVTYEAMASGLPSIVTYNSGSIVRHGKDGFVIPIRDIKSLKDGIQYFYENPSEVKRMGKNARKHVEKYTWYNYGENLYNELKRLGLL	not soluble
MGSDKIHHHHHHMPRDTLVSHRQSVDIGGKFSGKTVLTLDVYGTLIDWERGICDALGPILRGHGLSTSEDEMLERYATHESALEAGPYLTYREILEESLLRIAADLGFTPSEYELDIFSHSVGDWPAFADSRAALVALQKRFRLAVITNGDDEFFSLSNKHLKIQFDYVVTAQQARSYKPSLNNFHVALGRIDAPRSQILHVAQSLYHDHVPAQALGLQTVWINRRRGKPGFGAVPKAEAVPDAEFDDMRAFADAMLER	not soluble
MILGTPKADWLAEFPRLADLIALRPSEWFNPAIAPSAEALADVGLGAADVADASARLQRFAPLIARLFPETAASGGIIESDLVEVATFHDALRQHYAAELPGRLWLKRDSHLPISGSIKARGGIYEVLAHAERLALEHGLVGLDDDYSRLAEADCRAFFARHRIAVGSTGNLGLSIGIIGAALGFQASVHMSADARQWKKDKLRAHGVTVVEYASDYSVAVEQGRREAAGDPYTHFVDDENSRDLFLGYAVAAERLRGQLDAAGIRVDSEHPLFVHLPCGVGGGPGGVAFGLKLAFGDAVHCLFAEPTHSPCMFLGVYTGRHEQVSVQDFGIDNRTAADGLAVGRPSGFVGRAMQRLLDGYYTVDDDELFRLLALLERSQGIRLEPSALAGATGIARVTREPQGYRERMGLTSARLANATHLVWATGGGMVPETEMRAYLERGRSLL	not soluble
MAHRPRWTLSQVTELFEKPLLDLLFEAQQVHRQHFDPRQVQVSTLLSIKTGACPEDCKYCPQSSRYKTGLEAERLMEVEQVLESARKAKAAGSTRFCMGAAWKNPHERDMPYLEQMVQGVKAMGLEACMTLGTLSESQAQRLANAGLDYYNHNLDTSPEFYGNIITTRTYQERLDTLEKVRDAGIKVCSGGIVGLGETVKDRAGLLLQLANLPTPPESVPINMLVKVKGTPLADNDDVDAFDFIRTIAVARIMMPTSYVRLSAGREQMNEQTQAMCFMAGANSIFYGCKLLTTPNPEEDKDLQLFRKLGLNPQQTAVLAGDNEQQQRLEQALMTPDTDEYYNAAALLEHHHHHH	not soluble
MQFERISTEQKKLSLIQTFLHQNALKLDEQIEYFVVGYNDNEQIVVCGGLAGNIIKCVAIDESLRGSGVALQLITELVDLAYTLKRPHLFIYTKPEYATLFKSCGFYIISDANPYVVLLENSATRLQKQCSLWEKMRVDGNRIGSIVMNANPFTLGHRYLIEQALQQCDHLHLFIVGEDASQFSYTERFEMIQQGIFDLSNITLHSGSDYIISRATFPNYFLKDQLITDESYFEIDLKLFRLHIAQALGITHRFVGTELNCPVTAEYNRQMHYWLMDAEMNAPKINVIEIPRKTASNHIISASTVRKHLAEKNWAQLAEFVPMTTLNYLQKCGRF	soluble
MLSEFLHNKSDAMVNQTHEFLLEMTGVSKEFPGVKALDKVNLKVRPHSVHALMGENGAGKSTLLKCLFGIYEKDEGDIIFLGQHVNFSSSKEALESGVSMVHQELNQVKQCSVMDNIWLGRYPTKGFFVDHDKMYRDTKAIFAELDIDIDPKVKVATLSVSQMQMLEIAKAFSYDAKVVIMDEPTSSLTEKEVNHLFTIIKKLKEKGCGVVYISHKMEEIFSICDEITILRDGQWVDTRPLKGLDMDKIISMMVGRELTQRFPEKSNEPKNVILEVKNLTALNQPSIQDISFELRAGEILGVAGLVGSRRTDIVETIFGVRERSAGHILLHGREMKNHDAHEAIRNGFALVTEERRSTGIYSNLDITFNSLVANVDEYKTPYGLLSDKKMKSDTQWVIDSMRVKTPSHQTHIGSLSGGNQQKVIIGRWLLTQPEILMLDEPTRGIDVGAKYEIYQLILELAKKDKGIIIISSEMPELLGITDRIMVMSNGRNAGIVNTKQTSQNEILELASRYL	not soluble
MAASTSSSSSSSSSSLSSPSPCTWRYMTFTSFHGPDVRNTFLSHLRKQFNTNGITMFDDQRMERSQTLAPTLTQAIRESKIYIVLLSKNYASSSWCLDELLEILNCKEKRGQRVMTIFYGVNPSDVRKQTGEFGIAFNETCARKTEEERRKWSHALTCVGNITGVHVQDRDDEANMIEKIATDVSEKLNATESKDFDEMVGIKAHLTKIESLLSLDYDKVKIVGISGPAGIGKSTIARALHNLLSSSFHLSCFMENLISQSNPHSSLEYSSKLSLQEQLLSQVLNEKDIRIRHLGAIQERLHDQRVLIILDDVTSLEQLEVLANIKWYGPGSRIIVITKKKDILVQHGICDIYHVGFPTDADALKIFCLSAYRQTSPPDGSMKIHECEMFIKICGNLPLHLHVLGSALRGRSYGRVQSLCNLVSLADFV	not soluble
MGSDKIHHHHHHMKTSPRSNRLHIALFGKRNSGKSSLINALTNQNAALVSDIAGTTTDPVYQPMEIHGIGPCVFIDTAGFDDEGELGSLRIERTLQAADKADIALMVCCDTELSEEQRWIELLKERNIPYLLVLNKADLLEKPDEVADKLEQQTGQHPLIVSAKEKTGIDSIRQSILHRLPELNEQPDIVGDLANEGDVVLLVMPQDIQAPKGRLILPQVQTLRELLDKKCITLSCTTDQLDNALKALSVPPSLIITDSQVFRTVYEKKPPQSRLTSFSVLFARYKGDIDYYTEGAYIIDQLTENSRVLIAEACTHAPLSEDIGRVKLPRMLRKRIGEKLHIDIVSGNDFPKDLNCYDLIIHCGACMFNRKHVLNRIVKAKAQGVPMTNYGIVIAYINGIPFH	not soluble
MGSDKIHHHHHHMKKKNVIVFGGGTGLSVLLRGLKTFPVSITAIVTVADDGGSSGRLRKELDIPPPGDVRNVLVALSEVEPLLEQLFQHRFENGNGLSGHSLGNLLLAGMTSITGDFARGISEMSKVLNVRGKVLPASNRSIILHGEMEDGTIVTGESSIPKAGKKIKRVFLTPKDTKPLREGLEAIRKADVIVIGPGSLYTSVLPNLLVPGICEAIKQSTARKVYICNVMTQNGETDGYTASDHLQAIMDHCGVGIVDDILVHGEPISDTVKAKYAKEKAEPVIVDEHKLKALGVGTISDYFVLEQDDVLRHNASKVSEAILEGKPRTSSSIQ	not soluble
MGSDKIHHHHHHMPSKISQLVTGQKIEVQLSSSNVPARFYSEFIGAVNERWVIVNMPDARKYNDMRDLLQEKTPVIVRFVLENESGEICAFRSEISYVISHPTKMLFIMWPNQIEHRIIRKGRRFDAFLPASVSGQSVKGEENTFRGHVLDVSESGCRLKHEKPEGKIDELWENGSKIVLKIEQKNNGDLTLKAIVRQVKQVDDQLELGVQFMGNQKDEVNSLFSGSLVDIDELSRLESST	not soluble
MHLHISSIPHRNSNNSKGGVLDATGPMLSAKRGALLLQAYHRPGEVISYKAGDYHLVPKKFTVGKRIAVRSYLDRNRTELSDRTFMPQKNWFRPYDLQDGCFDRDHERLSYRFYNLETKVIWKAFDTPELIGMLLHDETVKGNSGMYAPDMLDAALHYTREARYWRCIGITKPFYDRNTLRAHCWEDNGLQVGTLVMSQAMRHALMDLERAVRRKELGLEPNYLWDRWGPIGFIDGARADYLPRFEHNPYVDPDGVDVTEIDVLPFNTHEQIRERYRDFIEPDTAPFEEVFRSPSHGSLTTLADIPNASVVALYKDLKLKAGTPVAGDAVELAPADVRTLFYLSANPEWRAVADGKASWEEVVDAMQPVQAELDEKIDAARLLQNTRHNAERVRAFFEEKCGFHDFMYTPDKTITAAVLCYLTELRRICTETAWGAALAKCLTDMERVQGMGRDAFLVYRHIEDAILDKKRRLWAGRFAGESHEESTLDYLLENFGRRAERPRNVGTTGVEFDREQEPIGRQVQRRVLDSDKANKLAEIRRSRGKMWSKKRSVFDALHEKQLQNFNYGVH	soluble
RREMTSYSDIDLILLHPEGSIPSGLEHFWYPIWDAKIRLDYTVRTPKECADMISAEPTAALALLDISHCSGDPQLTATTRCVVLEQWRRELKKNFNDVTDTAIARWNRSGSVVDMTHPDLKHGRGGLRDIELIRALALGNLCDKRPLGEERQLLLNIRTMLHQHAGRARDVLDPEFAVDVALDLGCEDRYDLSRSLAKAARTIDDATNAALSTARNLLPRRSSVRKAVRRPVDIDVVEVDGTLALSRTPNLEDPSLVLRVAAASARTGMTISESAWKQLETVPSMPPT	not soluble
MGSDKIHHHHHHMTQTTPQPDPSRLRDELVRLHGKASPEWDSLVRLDPRFVDAYLKFAGVPQRRNHLDDKTRAFIALAADACATQLYAPGVARHIERALSFGATREELIEVLELVSTIGIHTSNVGVPVLLEVLEEEGLRKGAPPLDERRQKLKAEFETNRGYWHPTWEGLLELDPDLFEAYVEFSSVPWRTGVLSPKIKEFMYCAFDASATHLYVPGLKLHIRNALRYGATAEELMELLEIVSVTGIHGAELGAPLLEAALKRSGAAAGEPHA	not soluble
MEGVKKIKNPSTVKDELLELMFRIYRSTNGKYPALEWVKRKPNPNDFDGFREVYEPFLKFRLSQEFDELYTYQKDNRIIGTIALVYKRIKEKGIWWVPEELMNEKVGLIEFFVVDPEFQGKGIGSTLLEFAVKRLRSLGKDPYVVTFPNLEAYSYYYMKKGFREIMRYKEFVILKFNHKKFQLEHHHHHH	not soluble
MGSDKIHHHHHHMVLSKFMPHNPKFAAKFAEAAQNAHATAQALVDLLENYTDVERKVQRVLDFEHEGDRITSEVTNLLAESFIVPFDREDILALNAELDDLVDDMEEAASKLSLYRIERPLPQMAQLARVVEQQCALLAQGMPLIEDGRMVDELRQLSQKIRALEDEGDRISDEVARHLYDGVTEVPQMIVAMRSGEILNLIENASDQAQRIARTVESILLKNA	not soluble
MGSDKIHHHHHHMTPVLSLDMEDPIRFIDENGSFEVVKVGHNLAIHGKKIFDELAKRNLKIILDLKFCDIPSTVERSIKSWDHPAIIGFTVHSCAGYESVERALSATDKHVFVVVKLTSMEGSLEDYMDRIEKLNKLGCDFVLPGPWAKALREKIKGKILVPGIRMEVKADDQKDVVTLEEMKGIANFAVLGREIYLSENPREKIKRIKEMRL	soluble
MGSDKIHHHHHHMWKELVESISNDMDNVDECFRPTHFWRMGAEYLQQDLDTYGITKFRSLPSTLGYFVPTYLFNGMITEPKKYAELASRCQDIVVTPKAKLFMTDFLSGESQARADFRVYLASQSNRAPYTEHFSESKVGEPVEHFEFEGRNYSRSSLNYLLGINFLKQHISDLSVKTVVEIGGGFGSLGEILLSDERNDTFYINVDIPPTCIFSTFYLQSVFGQSHVADYSVLSKQALVIDDLRSKHKAAIMCPWQLPSLEGKIDLFVNFISFQEMEPDIVENYLSEIDRLQSTYILLRNLREGKQLAHDDSQVGVKKAIKSDDYDKFLPDYELLATNVLPFGYQTIDGFHSELRLYRRKQPKLG	not soluble
MGSDKIHHHHHHMTQTSSLVINSFREITVNHPLWSHEFLIRCRAGNLFLPDVQILAVQMYKFSKEFNRILASILSCCEDESSQLVILENLFDEMGQGDITQSHPELFRQFTRALGIDDETLAALPTAPETRALIETYLQIPHKYGYLAALGAVCYASEGIVSSLYTQLYKGIIGATPLPKEALIFFEVHIDVDDSHAAKLAAVIEPRIPMNEEDIKVKLAIVEAMDARVQFFNGIQRQISKYSLYPDSWVHFDALL	not soluble
